Experimental data: patent US20190307836A1 (Bicycle, published 2019)
Starred links: 1 amine or outer side, 2 acyl side, 3 side chain; linkers in the order of their positions; H or OH if unused. Positions of bridges follow the written chain, without caps; N, C: chain ends. Non-standard residues stand in square brackets, D forms with d. Chains are numbered I, II in the order given. No end group written: not given here. *: point of attachment. TATA = O=C(CC[*:1])N1CN(C(=O)CC[*:2])CN(C(=O)CC[*:3])C1; Dap(PYA) = diaminopropionic acid bearing 4-pentynoyl; 1Nal = N[C@@H](Cc1cccc2ccccc12)C(=O)O; Hyp = O=C(O)[C@@H]1C[C@@H](O)CN1; hArg = N=C(N)NCCCC[C@H](N)C(=O)O; tBuAla = CC(C)(C)C[C@H](N)C(=O)O; Nle = CCCC[C@H](N)C(=O)O; Pent4ynoyl = C#CCCC(=O)*; Dap = NC[C@H](N)C(=O)O; βAla = NCCC(=O)O; Sar = CNCC(=O)O

B1: heterotandem bicyclic peptide complex BCY8942 (peptide)
peptide 1: AXDCXLVNPLCLHPDWXC
peptide 2: ACIEEGQYCFADPYXC
modifications: BCY8045: N-terminal acetyl; D-Ala8, Nle12; C-terminal Dap (diaminopropionic acid) bearing the linker; Ci, Cii, Ciii on TATA scaffold; BCY6169: N-terminal [PYA]-[B-Ala]-[Sar10]- (linker on PYA); HArg in the A-[HArg]-D extension; HyP1, dD10, HArg12; Ci, Cii, Ciii on TATA scaffold
B2: heterotandem bicyclic peptide complex BCY9350 (peptide)
peptide 1: CPXDCMXDWSTPXWC
peptide 2: ACIEEGQYCFADPYXC
modifications: BCY7732: N-terminal acetyl; Nle12; C-terminal Dap (diaminopropionic acid) bearing the linker; Ci, Cii, Ciii on TATA scaffold; BCY11942: N-terminal [PYA]-[B-Ala]-[Sar10]- (linker on PYA); 1Nal2, dD3, HArg5, dW7, HyP11, dW12; Ci, Cii, Ciii on TATA scaffold
B3: heterotandem bicyclic peptide complex BCY9351 (peptide)
peptide 1: CPXDCMXDWSTPXWC
peptide 2: ACIEEGQYCFADPYXC
modifications: BCY8045: N-terminal acetyl; D-Ala8, Nle12; C-terminal Dap (diaminopropionic acid) bearing the linker; Ci, Cii, Ciii on TATA scaffold; BCY8846: N-terminal [PYA]-[B-Ala]-[Sar10]- (linker on PYA); 1Nal2, dD3, HArg5, HyP11; Ci, Cii, Ciii on TATA scaffold
B4: heterotandem bicyclic peptide complex BCY9173 (peptide)
peptide 1: {Pent4ynoyl-βAla}-[Sar][Sar][Sar][Sar][Sar][Sar][Sar][Sar][Sar][Sar]A[hArg]DC[Hyp]LVNPLCLHP[dD]W[hArg]C
peptide 2: Ac-C[tBuAla]PE[dA]PYCFADPY[Nle]C[Dap]
modifications: linker I:14-I:21-I:28, II:1-II:8-II:15 via TATA; numbers in words are those of the source; also: heterotandem: PYA of chain 1 linked via PEG12 to C-terminal Dap of chain 2
B5: heterotandem bicyclic peptide complex BCY7985 (peptide)
peptide 1: AXDCXLVNPLCLHPDWXC
peptide 2: ACIEEGQYCFADPYXC
modifications: BCY7732: N-terminal acetyl; Nle12; C-terminal Dap (diaminopropionic acid) bearing the linker; Ci, Cii, Ciii on TATA scaffold; BCY6169: N-terminal [PYA]-[B-Ala]-[Sar10]- (linker on PYA); HArg in the A-[HArg]-D extension; HyP1, dD10, HArg12; Ci, Cii, Ciii on TATA scaffold
notes: also called EphA2-CD137 heterotandem BCY7985
B6: heterotandem bicyclic peptide complex BCY10000 (peptide)
peptide 1: {Pent4ynoyl-βAla}-[Sar][Sar][Sar][Sar][Sar][Sar][Sar][Sar][Sar][Sar]CP[1Nal][dD]CM[hArg]DWSTP[Hyp]WC
peptide 2: Ac-C[tBuAla]PE[dA]PYCFADPY[Nle]C[Dap]
modifications: linker I:11-I:15-I:25, II:1-II:8-II:15 via TATA; not fully specified (C-terminus); numbers in words are those of the source; also: linker to a chain's N/C-terminus via PEG12
B7: heterotandem bicyclic peptide complex BCY8854 (peptide)
peptide 1: CPXDCMXDWSTPXWC
peptide 2: ACIEEGQYCFADPYXC
modifications: BCY7732: N-terminal acetyl; Nle12; C-terminal Dap (diaminopropionic acid) bearing the linker; Ci, Cii, Ciii on TATA scaffold; BCY8846: N-terminal [PYA]-[B-Ala]-[Sar10]- (linker on PYA); 1Nal2, dD3, HArg5, HyP11; Ci, Cii, Ciii on TATA scaffold
B8: heterotandem bicyclic peptide complex BCY9759 (peptide)
peptide 1: CPXDCMXDWSTPXWC
peptide 2: ACIEEGQYCFADPYXC
modifications: BCY7732: N-terminal acetyl; Nle12; C-terminal Dap (diaminopropionic acid) bearing the linker; Ci, Cii, Ciii on TATA scaffold; BCY8116: linker on N-terminus; 1Nal2, dD3, HArg5, HyP11; Ci, Cii, Ciii on TATA scaffold
B9: heterotandem bicyclic peptide complex BCY9758 (peptide)
peptide 1: AXDCXLVNPLCLHPDWXC
peptide 2: ACIEEGQYCFADPYXC
modifications: BCY7732: N-terminal acetyl; Nle12; C-terminal Dap (diaminopropionic acid) bearing the linker; Ci, Cii, Ciii on TATA scaffold; BCY6099: N-terminal [B-Ala]-[Sar10]- (linker on N-terminus); HArg in the A-[HArg]-D extension; HyP1, dD10, HArg12; Ci, Cii, Ciii on TATA scaffold
B10: heterotandem bicyclic peptide complex BCY8943 (peptide)
peptide 1: VGPCLWDPTPCANLHLXC
peptide 2: ACIEEGQYCFADPYXC
modifications: BCY7732: N-terminal acetyl; Nle12; C-terminal Dap (diaminopropionic acid) bearing the linker; Ci, Cii, Ciii on TATA scaffold; BCY8941: N-terminal [PYA]-[B-Ala]-[Sar10]- (linker on PYA); HArg12; Ci, Cii, Ciii on TATA scaffold
B11: heterotandem bicyclic peptide complex BCY10572 (peptide)
peptide 1: CP[1Nal][dD]CM[hArg]DWSTP[Hyp]WC
peptide 2: Ac-C[tBuAla]PE[dK](Pent4ynoyl)PYCFADPY[Nle]CA
modifications: linker I:1-I:5-I:15, II:1-II:8-II:15 via TATA; not fully specified (C-terminus, bridges); also: chains joined by PEG5 linker on chain 1 N-terminus, triazole to D-Lys(PYA)
B12: heterotandem bicyclic peptide complex BCY10571 (peptide)
peptide 1: CP[1Nal][dD]CM[hArg]DWSTP[Hyp]WC
peptide 2: Ac-C[tBuAla]PK(Pent4ynoyl)[dA]PYCFADPY[Nle]CA
modifications: linker I:1-I:5-I:15, II:1-II:8-II:15 via TATA; not fully specified (C-terminus, bridges); also: chains joined by PEG5 linker on chain 1 N-terminus, triazole to K(PYA)
B13: heterotandem bicyclic peptide complex BCY10573 (peptide)
peptide 1: CP[1Nal][dD]CM[hArg]DWSTP[Hyp]WC
peptide 2: Ac-C[tBuAla]PE[dA]PYCFADPY[Nle]C-{Dap(PYA)}
modifications: linker I:1-I:5-I:15, II:1-II:8-II:15 via TATA; not fully specified (C-terminus); also: linker to a chain's N/C-terminus via PEG5

molecular target: CD137 expressed on cells (CHO cells expressing CD137; Jurkat cells of the Promega CD137 luciferase reporter assay) (UniProt Q07011); assay: cell-based or functional assay
Sequence (Q07011 24-255 limits assumed): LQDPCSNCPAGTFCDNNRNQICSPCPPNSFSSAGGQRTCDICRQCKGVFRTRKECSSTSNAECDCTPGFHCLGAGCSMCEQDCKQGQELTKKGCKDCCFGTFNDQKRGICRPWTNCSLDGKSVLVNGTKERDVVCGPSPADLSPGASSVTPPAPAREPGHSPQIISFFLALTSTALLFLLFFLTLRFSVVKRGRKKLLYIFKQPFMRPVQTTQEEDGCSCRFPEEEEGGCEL

Row | Binder | Fold Induction over Background, CD137 reporter assay, co-culture with PC3 (EphA2) [fold] | Fold Induction over Background, CD137 reporter assay, co-culture with H1376 (Nectin4) [fold]
1 | B1 | < 2 | –
2 | B2 | – | < 2
3 | B3 | – | < 2

molecular target: CD137 expressed on cells (CHO cells expressing CD137); Jurkat cells of the Promega CD137 luciferase reporter … (UniProt Q07011 24-255, limits assumed); assay: cell-based or functional assay
Sequence (Q07011 24-255 limits assumed): as above

Row | Binder | EC50 (nM), CD137 reporter assay, co-culture with SC-OV-3 (EphA2) [nM] | Fold Induction over Background, CD137 reporter assay, co-culture with SC-OV-3 (EphA2) [fold] | EC50 (nM), CD137 reporter assay, co-culture with H1376 (Nectin4) [nM] | Fold Induction over Background, CD137 reporter assay, co-culture with PC3 (EphA2) [fold]
4 | B4 | 0.94 | 21 | – | –
5 | B5 | 4 | 15 | – | –
6 | B6 | – | – | 0.58 | –
7 | B7 | – | – | 1.2 | –
8 | B8 | – | – | 2.7 | –
9 | B9 | 1.2 | 7 | – | –
10 | B10 | – | – | – | < 2

molecular target: CD137 on human PBMC (anti-CD3 stimulated) (human, UniProt Q07011 24-255); assay: cell-based or functional assay
Sequence (Q07011 24-255): as the sequence (Q07011 24-255 limits assumed) above

Row | Binder | EC50 (nM), IFN-γ secretion, human PBMC co-culture with 4T1-D02(Nectin4+) [nM] | max IFN-γ (pg/ml), human PBMC co-culture with 4T1-D02(Nectin4+) [pg/mL]
11 | B11 | 0.25 | 17900
12 | B6 | 0.21 | 19600
13 | B12 | 0.44 | 18300
14 | B7 | 0.89 | 16000

molecular target: T1, Recombinant human CD137 (R&D systems) (human, UniProt Q07011 24-186, biotinylated with EZ-Link Sulfo-NHS-LC-LC-Biotin); assay: SPR (Biacore), biotinylated human CD137 on streptavidin chip
T1 construct: Bought protein; also called human CD137 protein; TNFRSF9
Protocol: The protein was desalted to remove uncoupled biotin using spin columns into PBS.
For analysis of peptide binding, a Biacore T200 or a Biacore 3000 instrument was used with a XanTec CMD500D chip. Streptavidin was immobilized on the chip using standard amine-coupling chemistry at 25° C. with HBS-N (10 mM HEPES, 0.15 M NaCl, pH 7.4) as the running buffer. Briefly, the carboxymethyl dextran surface was activated with a 7 min injection of a 1:1 ratio of 0.4 M 1-ethyl-3-(3-dimethylaminopropyl) carbodiimide hydrochloride (EDC)/0.1 M N-hydroxy succinimide (NHS) at a flow rate of 10 μl/min. For capture of streptavidin, the protein was diluted to 0.2 mg/ml in 10 mM sodium acetate (pH 4.5) and captured by injecting 120 μl of onto the activated chip surface. Residual activated groups were blocked with a 7 min injection of 1 M ethanolamine (pH 8.5) and biotinylated CD137 captured to a level of 270-1500 RU. Buffer was changed to PBS/0.05% Tween 20 and a dilution series of the peptides was prepared in this buffer with a final DMSO concentration of 0.5%. The top peptide concentration was 500 nM with 6 further 2-fold or 3-fold dilutions. The SPR analysis was run at 25° C. at a flow rate of 90 μl/min with 60 seconds association and 900 seconds dissociation. After each cycle a regeneration step (10 μl of 10 mM glycine pH 2) was employed. Data were corrected for DMSO excluded volume effects as needed. All data were double-referenced for blank injections and reference surface using standard processing procedures and data processing and kinetic fitting were performed using Scrubber software, version 2.0c (BioLogic Software). Data were fitted using simple 1:1 binding model allowing for mass transport effects where appropriate.

Row | Binder | Kd [nM]
15 | B4 | 7.98
16 | B1 | 853
17 | B2 | 69.4
18 | B11 | 5
19 | B5 | 143
20 | B13 | 3.39
21 | B6 | 6.19
22 | B3 | 3640
23 | B12 | 12
24 | B7 | 108
25 | B8 | 44.3
26 | B9 | 189
27 | B10 | 156

molecular target: T2, human EphA2 protein (human, UniProt P29317 25-534, limits assumed, biotinylated with EZ-Link Sulfo-NHS-LC-Biotin); assay: SPR (Biacore T200), biotinylated human EphA2 on streptavidin chip
T2 construct: Construct not described
Protocol: (§1) Streptavidin was immobilized on the chip using standard amine-coupling chemistry at 25° C. with HBS-N (10 mM HEPES, 0.15 M NaCl, pH 7.4) as the running buffer. Briefly, the carboxymethyl dextran surface was activated with a 7 min injection of a 1:1 ratio of 0.4 M 1-ethyl-3-(3-dimethylaminopropyl) carbodiimide hydrochloride (EDC)/0.1 M N-hydroxy succinimide (NHS) at a flow rate of 10 μl/min. […] Data were corrected for DMSO excluded volume effects. All data were double-referenced for blank injections and reference surface using standard processing procedures and data processing and kinetic fitting were performed using Scrubber software, version 2.0c (BioLogic Software). Data were fitted using simple 1:1 binding model allowing for mass transport effects where appropriate.

T2 sequence (P29317 25-534 limits assumed): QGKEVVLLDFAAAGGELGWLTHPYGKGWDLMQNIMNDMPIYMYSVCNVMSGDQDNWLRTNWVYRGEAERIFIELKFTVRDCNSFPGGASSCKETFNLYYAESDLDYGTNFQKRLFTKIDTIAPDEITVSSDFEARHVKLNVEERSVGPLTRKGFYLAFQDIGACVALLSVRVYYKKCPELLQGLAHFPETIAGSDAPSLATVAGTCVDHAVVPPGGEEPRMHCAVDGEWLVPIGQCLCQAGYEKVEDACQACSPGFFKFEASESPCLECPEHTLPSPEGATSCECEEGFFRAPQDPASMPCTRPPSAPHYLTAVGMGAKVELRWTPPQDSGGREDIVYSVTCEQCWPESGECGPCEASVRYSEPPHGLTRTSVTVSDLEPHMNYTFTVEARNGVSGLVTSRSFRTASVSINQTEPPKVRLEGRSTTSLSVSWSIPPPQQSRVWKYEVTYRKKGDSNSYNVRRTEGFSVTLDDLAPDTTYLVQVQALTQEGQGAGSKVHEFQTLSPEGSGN

Row | Binder | Kd [nM]
28 | B4 | 2.1
29 | B1 | 1.7
30 | B5 | 2
31 | B9 | 1.5

molecular target: T3, Human Nectin-4 (residues Gly32-Ser349; NCBI RefSeq: NP_112178.2) with C-terminal FLAG tag (human, UniProt Q96NY8 32-349, randomly biotinylated with EZ-Link Sulfo-NHS-LC-LC-Biotin); assay: SPR (Biacore 3000), biotinylated human Nectin-4 on streptavidin chip
T3 construct: range 32-349; also called human Nectin-4 protein; not shown: C-terminal FLAG tag
T3 sequence (looked up): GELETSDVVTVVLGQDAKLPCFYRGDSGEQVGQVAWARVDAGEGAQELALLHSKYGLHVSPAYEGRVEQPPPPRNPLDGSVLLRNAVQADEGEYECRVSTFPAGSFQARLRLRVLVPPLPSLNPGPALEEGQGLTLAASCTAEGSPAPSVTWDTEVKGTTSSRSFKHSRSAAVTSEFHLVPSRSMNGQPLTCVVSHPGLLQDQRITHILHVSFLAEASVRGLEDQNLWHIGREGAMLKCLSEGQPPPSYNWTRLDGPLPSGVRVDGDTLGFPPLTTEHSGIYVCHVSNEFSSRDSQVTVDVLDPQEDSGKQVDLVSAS
Protocol: as §1, with “[…] Buffer was changed to PBS/0.05% Tween 20 and a dilution series of” for “Briefly,”, “peptides” for “carboxymethyl dextran surface”, “prepared in this buffer” for “activated”, “final DMSO concentration” for “7 min injection”, “0.5%.” for “a 1:1 ratio of 0.4 M 1-ethyl-3-(3-dimethylaminopropyl) carbodiimide hydrochloride (EDC)/0.1 M N-hydroxy succinimide (NHS) at a flow rate of 10 μl/min.”

Row | Binder | Kd [nM]
32 | B6 | 2.26
33 | B3 | 2.47
34 | B7 | 2.76
35 | B8 | 2.14
